Measurements: publication PMC3745347, “Interaction of Glucocorticoid Receptor (GR) with Estrogen Receptor (ER) α and Activator Protein 1 (AP1) in Dexamethasone-mediated Interference of ERα Activity*” (The Journal of Biological Chemistry, 2013)

Target: T1, baculovirus expressed full-length human GR (human, UniProt P04150 1-777)
T1 construct: human glucocorticoid receptor, full length, baculovirus-expressed; source: produced in baculovirus, bought: Invitrogen, partially purified
T1 sequence (looked up): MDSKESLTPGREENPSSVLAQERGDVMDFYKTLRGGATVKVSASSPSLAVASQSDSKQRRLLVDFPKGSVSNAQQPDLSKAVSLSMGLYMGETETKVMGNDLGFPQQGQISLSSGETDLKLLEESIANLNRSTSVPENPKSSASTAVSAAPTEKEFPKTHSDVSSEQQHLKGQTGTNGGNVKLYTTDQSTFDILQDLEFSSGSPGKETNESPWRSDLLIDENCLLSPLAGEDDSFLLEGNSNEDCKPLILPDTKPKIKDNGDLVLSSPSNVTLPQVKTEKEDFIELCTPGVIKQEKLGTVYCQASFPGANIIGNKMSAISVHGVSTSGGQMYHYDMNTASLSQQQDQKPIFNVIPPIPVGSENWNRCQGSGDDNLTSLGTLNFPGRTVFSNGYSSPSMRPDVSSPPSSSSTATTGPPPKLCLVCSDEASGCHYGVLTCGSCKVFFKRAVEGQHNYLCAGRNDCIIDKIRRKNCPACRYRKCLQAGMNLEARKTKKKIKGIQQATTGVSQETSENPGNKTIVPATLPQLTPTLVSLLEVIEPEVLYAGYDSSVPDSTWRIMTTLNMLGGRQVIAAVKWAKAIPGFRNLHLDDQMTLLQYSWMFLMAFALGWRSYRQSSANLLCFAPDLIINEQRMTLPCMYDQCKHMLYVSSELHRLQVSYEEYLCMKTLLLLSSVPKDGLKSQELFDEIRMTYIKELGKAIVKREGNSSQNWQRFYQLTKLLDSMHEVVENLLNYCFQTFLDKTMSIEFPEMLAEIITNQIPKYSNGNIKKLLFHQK
Assay: pull-down; GST-ERα proteins on glutathione beads incubated with baculovirus-expressed, partially purified human GR; 50 mM Tris pH 8.0, 5 mM EDTA, 150 mM NaCl, 0.5% Nonidet P-40, 1 h at 4 °C; washes with up to 500 mM NaCl; blot for GR
Settings: both partners purified

binding result: binds
B1: GST-ERα-N (aa 1-250) (domain or fragment, human, UniProt P03372 1-250, looked up)
chain: MTMTLHTKASGMALLHQIQGNELEPLNRPQLKIPLERPLGEVYLDSSKPAVYNYPEGAAYEFNAAAAANAQVYGQTGLPYGPGSEAAAFGSNGLGGFPPLNSVSPSPLMLLHPPPQLSPFLQPHGQQVPYYLENEPSGYTVREAGPPAFYRPNSDNRRQGGRERLASTNDKGSMAMESAKETRYCAVCNDYASGYHYGVWSCEGCKAFFKRSIQGHNDYMCPATNQCTIDKNRRKSCQACRLRKCYEVGM
notes: estrogen receptor alpha, residues 1-250 (N-terminal region: AF1 and DBD); Made in pGEX-6P1; the species of the GST construct itself is not separately stated; also called N-terminal half of ERα
